Results as given in patent US20210180049A1 (CHUGAI SEIYAKU KABUSHIKI KAISHA, priority 2013, published 2021).

How the values were obtained:
[1] = target: T1, human IL-6 receptor (hIL-6R) (Homo sapiens, UniProt P08887); test: SPR (Biacore T200) of 6RNMSC1-2_F02 with hIL-6R with or without kynurenine or ATP; type: binding; settings: 1 μmol/L hIL-6R
T1 sequence (P08887 20-357): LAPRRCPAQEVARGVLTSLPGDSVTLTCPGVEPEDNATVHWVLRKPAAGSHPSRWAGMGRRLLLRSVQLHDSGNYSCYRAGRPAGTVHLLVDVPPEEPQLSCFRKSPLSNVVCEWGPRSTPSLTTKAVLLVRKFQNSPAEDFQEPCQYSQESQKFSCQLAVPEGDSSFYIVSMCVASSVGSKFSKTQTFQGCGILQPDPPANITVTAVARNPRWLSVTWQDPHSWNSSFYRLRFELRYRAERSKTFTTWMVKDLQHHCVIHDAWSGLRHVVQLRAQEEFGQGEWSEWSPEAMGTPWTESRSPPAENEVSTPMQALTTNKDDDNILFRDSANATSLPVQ
Text: Biacore T200 (GE Healthcare) was used to analyze the interaction of antigen-antibody reaction between 6RNMSC1-2_F02 and human IL-6 receptor (hIL-6R). An appropriate amount of protein A (Invitrogen) was immobilized onto Sensor chip CM5 (GE Healthcare) by the amine coupling method. The antibody of interest was captured onto the sensor chip, and the antigen hIL-6R was allowed to interact. The running buffer used was 20 mmol/L ACES, 150 mmol/L NaCl, 0.05% (w/v) Tween 20, pH 7.4. The interaction with the antigen hIL-6R was measured at 25° C. hIL-6R was diluted with the running buffer, the running buffer containing 100 μmol/L kynurenine, or, as a control, the running buffer containing 10 mmol/L ATP.
Diluted hIL-6R solutions and the running buffer which is the blank were injected at a flow rate of 10 μL/min for one minute and hIL-6R was allowed to interact with 6RNMSC1-2_F02 captured on the sensor chip. Then, the running buffer was run at a flow rate of 10 μL/min for one minute to observe the dissociation of hIL-6R from the antibody. […] The dissociation constant KD (M) of 6RNMSC1-2_F02 for hIL-6R was calculated from the kinetic parameters, the association rate constant ka (1/Ms) and the dissociation rate constant kd (l/s), calculated based on the sensorgrams obtained by the measurements. Each parameter was calculated using Biacore T200 Evaluation Software (GE Healthcare).

hIL-6R = target: T2, hIL-6R (Homo sapiens, UniProt P08887); type: binding; settings: Octet
T2 sequence (P08887 20-357): T1 sequence (P08887 20-357)
Method: Octet ([…]) was used to assess the effect of various small molecules on the antigen-antibody reaction between hIL-6R and the kynurenine-switch antibody 6RNMSC1-2_F02 obtained from a library. A total of eight molecules shown in Example (7-5), which are kynurenine and derivatives thereof, were evaluated as small molecules. The assay buffer used was TBS, pH 7.4, and measurements were carried out at 30° C. Biotinylated hIL-6R was immobilized onto a streptavidin sensor chip, the antibody was allowed to interact, and changes in the amount of its binding were observed. The antibody was diluted using the assay buffer or the assay buffer to which either one of the small molecules has been added. The final concentration of each small molecule was adjusted to 100 uM, while the final antibody concentration was adjusted to 10 μg/mL.

[2] = target: T1, human IL-6 receptor (hIL-6R); test: SPR effect of kynurenine concentration on binding to immobilized hIL-6R; settings: 1 μg/mL antibody, 180 seconds
Method: Next, the effect of kynurenine concentration on antigen-antibody reaction between 6RNMSC1-2_F02 and hIL-6R was assessed using Biacore T200 (GE Healthcare). The running buffer used was 20 mmol/L ACES, 150 mmol/L NaCl, 0.05% (w/v) Tween 20, pH 7.4. Antigen-antibody reaction between 6RNMSC1-2_F02 and human IL-6R was assayed at 25° C. hIL-6R was immobilized onto Sensor chip CM5 by amine coupling. As an analyte, 1 μg/mL 6RNMSC1-2_F02 diluted with 20 mmol/L ACES, 150 mmol/L NaCl, 0.05% (w/v) Tween 20, pH 7.4, containing kynurenine adjusted to various concentrations were allowed to interact for 180 seconds and changes in the amount of binding were observed.

[3] = target: T1, human IL-6 receptor (hIL-6R); test: IgG ELISA for hIL-6R binding under small molecule conditions of Table 12; settings: IgG 2.5 μg/mL
Method: Three types of obtained antibodies 6RNMSC1-2_F02, 6RNMSC1-3_G02, and GC413 were subjected to ELISA under the nine conditions shown in Table 12. The antigen used was biotin-labeled hIL-6R.
First, a StreptaWell 96 microtiter plate (Roche) was coated with 100 μL of PBS containing biotin-labeled hIL-6R at room temperature for one hour or longer. […] 100 μL of each of the purified IgGs prepared at 2.5 μg/mL using Sample Buffer containing small molecules at the final concentrations shown in Table 12 were added to each well, and the plate was let still at room temperature for one hour to allow each IgG to bind to biotin-labeled hIL-6R present in each well. After washing with Wash Buffer containing small molecules at the final concentrations shown in Table 12, HRP-conjugated anti-human IgG antibody (BIOSOURCE) diluted with Sample Buffer containing the same small molecules was added to each well and the plate was incubated for one hour. After washing with Wash Buffer containing respective small molecules, the chromogenic reaction of TMB single solution (ZYMED) added in each well was terminated by adding sulfuric acid. Then, the color development was measured by absorbance at 450 nm.

Method for Tm measurement by DSC: Measurement by DSC was carried out by a method known to those skilled in the art.
DSC measurement was carried out by a method known to those skilled in the art.

B1: 6RNMSC1-2_F02: antibody binding hIL-6R in the presence of kynurenine; heavy chain SEQ ID NO: 32, light chain SEQ ID NO: 33 (antibody, listed as Homo sapiens, V domains shown)
VH: QVQLVQSGAEVKKPGSSVKVSCKASGGTFSSYAISWVRQAPGQGLEWMGGIIPIFGTANYAQKFQGRVTITADESTSTAYMELSSLRSEDTAVYYCARDAPVVARPRGAFDIWGQGTMVTVSS
VL: DIVMTQTPLSSPVTLGQPASISCRSSQSLVHSDGNTYLSWLQQRPGQPPRLLIHEISNRFSGVPDRFSGSGAGTNFTLKISRVEAEDVGVYYCMQATQFPRTFGQGTKVEIK
Tm (Tm measurement by DSC): 82.9 °C | hIL-6R binding in the absence of kynurenine [1]: not detected | hIL-6R binding in the presence of kynurenine ([1]; 100 μmol/L kynurenine): bound to hIL-6R | hIL-6R binding in the presence of 3-hydroxy-DL-kynurenine (hIL-6R; 100 uM small molecule): binding to hIL-6R was observed | hIL-6R binding in the presence of RO0635389-000-001 (hIL-6R; 100 uM small molecule): binding to hIL-6R was observed | hIL-6R binding in the presence of RO0635390-000-001 (hIL-6R; 100 uM small molecule): binding to hIL-6R was observed | hIL-6R binding in the absence of kynurenine (hIL-6R; 30° C., antibody 10 μg/mL): not observed | hIL-6R binding in the presence of 100 uM kynurenine (hIL-6R; 30° C., antibody 10 μg/mL): bound to hIL-6R | effect of kynurenine concentration on the amount of binding to hIL-6R [2]: the higher the concentration of kynurenine acting as a switch, the greater the amount of 6RNMSC1-2_F02 binding to hIL-6R | absorbance under condition 9 (no small molecule) compared to condition 8 (cocktail of all small molecules) ([3]; absorbance at 450 nm): significantly lower | small molecule in whose presence the antibody binds hIL-6R ([3]; conditions 1-9 of Table 12, absorbance at 450 nm): binds to the antigen hIL-6R in the presence of kynurenine
